PMC7138851, “Quantitative assessment of the determinant structural differences between redox-active and inactive glutaredoxins” (Nature Communications, 2020)

Tests used:
[1] = substrate: N[C@@H](CCC(=O)N[C@@H](CS)C(=O)NCC(=O)O)C(=O)O; experiment: purified protein, by the assay type; design: GSSCys oxidoreductase assay, steady-state kinetics, coupled NADPH consumption at 340 nm, pH 8.0, 25 °C; settings: pH 8.0; 25.0 °C
Description: Steady-state kinetics of wild-type and mutant ScGrx7 and HsGrx5^C122S in the GSSCys and [compound left out] assays were determined spectrophotometrically by monitoring the consumption of NADPH at 340 nm and 25 °C using a thermostated Jasco V-650 UV/vis spectrophotometer[11],[19],[25]. Fresh stock solutions of NADPH, GSH, GR, and GSSCys or [compound left out] were prepared in assay buffer containing 0.1 M Tris/HCl, 1 mM EDTA, pH 8.0 before each experiment. Both assays were performed with 0.1 mM NADPH and 1 U/ml ScGR. The following final protein concentrations were used for Y110F/H/A (5–150 nM), D144A/K (10 nM), E147A/K (10 nM), R153A/E (25–50 nM), ScGrx7^WP (20 nM), ScGrx7^loop (up to 1.4 µM), ScGrx7^WP+loop (up 2.6 µM), HsGrx5^C122S (up to 15 µM), HsGrx5^RR (up to 12 µM), HsGrx5^loop (up to 1.6 µM), and HsGrx5^RR+loop (up to 4.0 µM). For the GSSCys assays, GSH was varied between 50 µM and 1.5 mM at fixed GSSCys concentrations (25, 50, 100, and 150 µM). NADPH, GSH, and GR were mixed in assay buffer before Grx was added and a baseline was recorded for 30 s. All GSSCys assays were started by the addition of GSSCys. The absorbance of a reference cuvette containing all components but no Grx was measured in parallel and subtracted from the obtained Grx activity. For the [compound left out] assays, GSH was varied between 100 µM and 2.0 mM at fixed concentrations of [compound left out] (0.18, 0.37, 0.55, and 0.74 mM). NADPH, GSH, and [compound left out] were preincubated in assay buffer for 2 min before GR was added and a baseline was recorded for 30 s. All [compound left out] assays were started by the addition of enzyme. Kinetic data were analyzed in Excel and SigmaPlot 13 by nonlinear and linear regression according to Michaelis–Menten, Lineweaver–Burk, Eadie–Hofstee, and Hanes theory[11],[19],[25]. 13 Supplementary Figure 7 Supplementary Figure 7 | GSSCys assay steady-state kinetics of ScGrx7 wild-type enzyme and D144X mutants. (a) Michaelis-Menten plots of the GSH-dependent reaction velocity at different initial concentrations of GSSCys. […]

[2] = substrate: N[C@@H](CCC(=O)N[C@@H](CS)C(=O)NCC(=O)O)C(=O)O; experiment: purified protein, by the assay type; design: Disulfide oxidoreductase assay, steady-state kinetics, coupled NADPH consumption at 340 nm, pH 8.0, 25 °C; settings: pH 8.0; 25.0 °C
Description: Steady-state kinetics of wild-type and mutant ScGrx7 and HsGrx5^C122S in the GSSCys and [compound left out] assays were determined spectrophotometrically by monitoring the consumption of NADPH at 340 nm and 25 °C using a thermostated Jasco V-650 UV/vis spectrophotometer[11],[19],[25]. Fresh stock solutions of NADPH, GSH, GR, and GSSCys or [compound left out] were prepared in assay buffer containing 0.1 M Tris/HCl, 1 mM EDTA, pH 8.0 before each experiment. Both assays were performed with 0.1 mM NADPH and 1 U/ml ScGR. The following final protein concentrations were used for Y110F/H/A (5–150 nM), D144A/K (10 nM), E147A/K (10 nM), R153A/E (25–50 nM), ScGrx7^WP (20 nM), ScGrx7^loop (up to 1.4 µM), ScGrx7^WP+loop (up 2.6 µM), HsGrx5^C122S (up to 15 µM), HsGrx5^RR (up to 12 µM), HsGrx5^loop (up to 1.6 µM), and HsGrx5^RR+loop (up to 4.0 µM). For the GSSCys assays, GSH was varied between 50 µM and 1.5 mM at fixed GSSCys concentrations (25, 50, 100, and 150 µM). NADPH, GSH, and GR were mixed in assay buffer before Grx was added and a baseline was recorded for 30 s. All GSSCys assays were started by the addition of GSSCys. The absorbance of a reference cuvette containing all components but no Grx was measured in parallel and subtracted from the obtained Grx activity. For the [compound left out] assays, GSH was varied between 100 µM and 2.0 mM at fixed concentrations of [compound left out] (0.18, 0.37, 0.55, and 0.74 mM). NADPH, GSH, and [compound left out] were preincubated in assay buffer for 2 min before GR was added and a baseline was recorded for 30 s. All [compound left out] assays were started by the addition of enzyme. Kinetic data were analyzed in Excel and SigmaPlot 13 by nonlinear and linear regression according to Michaelis–Menten, Lineweaver–Burk, Eadie–Hofstee, and Hanes theory[11],[19],[25].

B1: ScGrx7 (Saccharomyces cerevisiae S288C) (protein)
chain: SVNESITTHHPDSLVTFDNSGNAPGTHQSVHDTVNTQDKEAEEVDKNSGDAEFDAAAEYNKIMEQSPMIVFSKTGCPYSKKLKALLTNSYTFSPSYYVVELDRHEHTKELQDQIEKVTGRRTVPNVIIGGTSRGGYTEIAELHKNDELLDSFKKWSDGAFTVKANSQSESA
notes: E. coli XL1-Blue, pQE30; N-terminal MRGS(H)6 tag
Km [1]: 291 ± 17.6 µM
kcat [1]: 75.2 ± 1.6 s⁻¹
kcat/Km [1]: 258000 M⁻¹ s⁻¹
Km [2]: 1100 ± 100 µM
kcat [2]: 72.9 ± 3.4 s⁻¹
kcat/Km [2]: 66500 M⁻¹ s⁻¹
